B1: Red alga Porphyra yezonesis cytochrome c6: cytochrome c6 purified from red alga Porphyra yezonesis, SEQ ID NO: 2; comparison protein (protein, listed as Porphyra yezoensis)
chain: ADLDNGEKVFSANCAACHAGGNNAIMPDKTLKKDVLEANSMNTIDAITYQVQNGKNAMPAFGGRLVDEDIEDAANYVLSQSEKGW

Key:
[1] = Measurement of NO-scavenging ability (nitrite/dithionite/methyl viologen reaction, remaining nitrite by diazotization method); type: biochemical; conditions: reaction turnover number from Lineweaver-Burk plot; 2, 4, 6, 8 and 10 mM sodium nitrite; pH 7.0; 37° C.
Procedure: To a 10 ml vial, 0.3 ml of 100 mM phosphate buffer (pH 7.0), 0.4 ml of 10 mM sodium nitrite, 0.5 ml of a solution of each of the above-described peptides, and 0.4 ml of 3 mM methyl viologen (Tokyo Kasei Kogyo) were added. Then, the vial was tightly sealed with a butyl rubber stopper and an aluminum seal. This vial was kept at 37° C. for 5 min while feeding argon gas thereinto. Then, 0.3 ml of 100 mM sodium dithionite (dissolved in 50 mM sodium hydrogencarbonate) was added thereto to start the reaction. A 0.2 ml sample was taken from the reaction solution at regular intervals and air-oxidized in a vortex mixer to thereby terminate the reaction.
The amount of the remaining nitrite was determined by the diazotization method. 0.02 ml of the reaction solution was taken, and 1.98 ml of ultrapure water was added thereto. Then, 1 ml of 1% sulfanilamide, 1 ml of 0.02% N-1-naphthyl ethylenediamine chloride and 1 ml of ultrapure water were added thereto. The resultant solution was left at room temperature for 20 min. Then, absorption of the produced azo dye was measured at 540 nm, followed by calculation of the amount of the remaining nitrite from a working curve prepared from a nitrous acid solution of a known concentration.
The measurement of absorption was performed with Shimadzu UV-1600 UV-Visible Spectrophotometer.
Analysis based on reaction kinetics was performed by determining specific activities against 2, 4, 6, 8 and 10 mM sodium nitrite and then calculating the reaction turnover number kcat(s^−1) using a Lineweaver-Burk plot.

[2] = Isoelectric point by isoelectric focusing (Ampholine PAGplate gel, pH 3.5-9.5); type: physicochemical
Procedure: (§1) In the following Examples, reagents manufactured by Wako Purechemical Industries were used unless otherwise noted. Isoelectric point was analyzed by isoelectric focusing using Ampholine PAGplate gel (Pharmacia; for IEF; pH 3.5-9.5). Absorption maximum was determined with Hitachi U-3310 Spectrophotometer (Hitachi). Oxidation-reduction potential was determined with Hitachi U-3310 Spectrophotometer (Hitachi) and ORP electrode (Metrohm).

[3] = Oxidation-reduction potential (spectrophotometer and ORP electrode); type: physicochemical
Procedure: as §1

Row | Molecule | Rate Constant kcat [1] | Isoelectric point [2] | Oxidation-reduction potential [3]
1 | Horse cardiac muscle cytochrome c: horse cardiac muscle cytochrome c (Wako Purechemical Industries), SEQ ID NO: 1; comparison protein [reference compound] | 0.01521 s⁻¹ |  | 
2 | mp9: heme peptide, SEQ ID NO: 4, heme bound to Cys 1 and 4; trypsin digest of horse cardiac muscle cytochrome c (CAQCHTVEK; heme bound to Cys1 and Cys4; listed as Equus caballus) | 1.66 s⁻¹ | 4.95 | −132 mV
3 | mp15: heme peptide, SEQ ID NO: 3, heme bound to Cys 5 and 8; thermolysin digest of Porphyra yezonesis cytochrome c6 (FSANCAACHAGGNNA; heme bound to Cys5 and Cys8; listed as Porphyra yezoensis) | 2.54 s⁻¹ | 4.15 | −82.2 mV
4 | mp22: heme peptide, SEQ ID NO: 5, heme bound to Cys 4 and 7; chymotrypsin digest of horse cardiac muscle cytochrome c (VQKCAQCHTVEKGGKHKTGPNL; heme bound to Cys4 and Cys7; listed as Equus caballus) | 0.80 s⁻¹ | 6.02 | −66.5 mV
5 | mp65: heme peptide, SEQ ID NO: 6, heme bound to Cys 14 and 17; cyanogen bromide cleavage of horse cardiac muscle cytochrome c | 0.12 s⁻¹ | 9.52 | −62.1 mV
6 | B1 | 0.05 s⁻¹ |  | 

— patent publication US7358338B2, “Heme peptide” (Nihon University, priority 2002, dated 2008)
